Measurements published in the RNAGym collection of RNA variant scans (doi:10.1073/pnas.2313332121).
This sample holds only a part of the variants without activity.

B1: TPR 5TU (parent)
chain: GGAUCUUCUCGAUCUAACAAAAAAGACAAAUCUGCCACAAAGCUUGAGAGCAUCUUCGGAUGCAGAGGCGGCAGCCUUCGGUGGCGCGAUAGCGCCAACGUUCUCAACUAUGACACGCAAAACGCGUGCUCCGUUGAAUGGAGUUUAUCAUG

Variants of: B1
Experiment: polymerase ribozyme fitness, log enrichment relative to wild type (log ratio); higher = more active; in vitro selection for triplet polymerase activity
Outline: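 Mutant libraries of each subunit of a heterodimeric triplet polymerase ribozyme were built by PCR and transcribed. Each library went through one round of in vitro selection in triplicate: annealing with biotinylated primer, partner subunit and triplets, frozen incubation at −7 °C, gel excision of extended constructs, streptavidin-bead capture and RT-PCR. Input and output libraries were Illumina-sequenced; only genotypes with ≥10 input reads and ≥1 read per output were kept. Fitness is log2(genotype enrichment/wild-type enrichment), using inverse-variance-weighted replicate averages.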

Variant | polymerase ribozyme fitness (log ratio)
C38A C57A G83A | -0.895
C38A G92C C93A C125G | ≤ -4.2
C38A U146G | -1.37
A37G G84U G92A U102G G117U G140A U144A | ≤ -4.2
C38U C93A | -2.86
C38A C85U | -0.235
A37G A66U | ≤ -4.2
C38U G65U G71U U90C C114U U135C U146A | ≤ -4.2
C38U G58C G65A A119G A147C | -2.82
A37G C96G | -1.89
C38U A91U | ≤ -4.2
A37C G84U A120G | -2.19
C38U C76U U77G G92A C118A C129U | ≤ -4.2
C38U G50U G80C C85U | ≤ -4.2
C38A U53A C95G A97G C116U | -2.22
A37U G59A | -0.836
C38G G58C G92U C105G U146C | -2.53
A37G U56G | -1.45
C38A G58A C95G G124C C125U | -1.11
C38U G59U C79G | -3.85
C38U A73U A107C C108U A115G | ≤ -4.2
A37G C85G | -3.97
C38G C95A G141U | 1.02
C38U G68C G88A A147C | ≤ -4.2

Variant | polymerase ribozyme fitness (log ratio)
C38U A52C U55G U56A A120C A121C | -2.04
C38G C85G | -2.66
A37U C38A G58C C85G C87G | ≤ -4.2
C38A C63A U90A G124U | ≤ -4.2
A37G C57U G71U G92C C96U A97C A150C U151A | ≤ -4.2
C38U C54A C99U C132U | -2.38
C38G A41U C93G A110C | ≤ -4.2
C38U C57U A106U U146G | -2.36
C38G A47C | -0.652
C38G U55G C76A G141A | ≤ -4.2
C38U A60U A89U | -0.823
A37G U56A G124C U134A U144A | ≤ -4.2
A37G C87U G136U | -3.7
A37U A41U A89G A115C A150U | ≤ -4.2
A37G A47G G92C | -3.05
A37U C75G C87G C93U U101C | ≤ -4.2
C38A G59U C85U U90C | ≤ -4.2
C38U A47C U102C A119U | -3.66
C38G U53A G80A | -2.37
A37U G80C A91C A150U | ≤ -4.2
C38U C95A A120G G141C | -1.16
A37G C57G C69A C85U A120U | -3.21
A37G C114U | -2.87
C38U C43U A73U C79A U90C U148G | ≤ -4.2

Variant | polymerase ribozyme fitness (log ratio)
C38U U44C C54U G94A C131U U139A U144C | ≤ -4.2
C38U G67A C69G G94A | ≤ -4.2
C38U A39C G92U | -2.59
C38U A97G | -0.0867
A37U G71A C125A | ≤ -4.2
A37U U53A G68A A98U | ≤ -4.2
C38A A147C | -1.26
A37G G92U | -2.01
A37C U61A | -1.77
A37G G136A U146C | -1.88
C38A C131G U146C U151A | ≤ -4.2
C38A C57U A113U | -1.65
C38U A41U C51U G84A G143A | -3.06
C38U G84U C123U | -0.916
C38G C54U C57U U146C | -1.16
A37G C76U G80U C105U A122U | ≤ -4.2
A37U A49C C95G A97G C108G A138G U146G U151A | ≤ -4.2
A37U A39U A49C G50C G84A A98C G143U | ≤ -4.2
A37G G59C A147C | -2.8
C38U G81U C108A U139G | ≤ -4.2
C38A G84A | -1.23
A37U G81U C85U A137C | ≤ -4.2
A37U A89C U148A | ≤ -4.2
A37C U55G G81A C87A A106C A107U G143U | ≤ -4.2

Variant | polymerase ribozyme fitness (log ratio)
A37G G58U A89G | -2.84
C38U A89U C114U | -2.12
C38A U61A A97G C123U | -1.68
C38A C69G C93U U139A | ≤ -4.2
C38U C57U C93A A142U | -3.5
A37G U55A C85U C96U A107C C125A U144A A147U | ≤ -4.2
C38A A41C C54A G136U | -4.11
C38G C69A C85A C96A A97C | -3.84
C38U G59C C95U A98U C103G U148G | ≤ -4.2
C38U G86A A89C C95G G112C | ≤ -4.2
C38A U45A C57A C87G U90G A107U | ≤ -4.2
C38A U55C A66G G80A U90A U127C | ≤ -4.2
A37U A39G A40U C93U C105G A110U A138U | ≤ -4.2
A37G A47C G83U | -4.12
A37G U56G G58C G59A C93G C99G C108U | ≤ -4.2
C38A C85U C87U C116A | -0.329
C38A A52G C63A | -1.26
A37U C75A G84A C114U | ≤ -4.2
A37U G65C A110U G136C | ≤ -4.2
A37G A49U C51U C85U G92A C96A A97G U144A U146G | ≤ -4.2
A37G G141U U145G | -3.34
C38U U45G G68A G81U C87G A98G | ≤ -4.2
A37U C72A G126C | ≤ -4.2
C38A A89U C93A G128A | ≤ -4.2

Variant | polymerase ribozyme fitness (log ratio)
A37U G48C | -2.02
C38U C85U | -0.884
A37G G84U U104G C118G | ≤ -4.2
A37U A49C A73U C75G A106C | ≤ -4.2
C38A C51U C95U G124C | -1.51
C38U A49G G92U C103U G124U | -1.7
A37U G58C | -0.362
C38G U53A G70A G92A A107C | ≤ -4.2
A37U C85G G86A G92C A115G | -3.98
C38U C63A C103A | -1.77
A37U C57G U61A G71U A91G U139G | ≤ -4.2
A37U A66U C76A U102A G141C | ≤ -4.2
C38U G83A C99G | -3.15
A37G C54U C131U | -1.58
A37G G50U C72U C105G U139C | ≤ -4.2
A37C G84U | -2.07
C38U G83U | -0.752
A37G A52G C54A | -2.77
A37G G84U | -3.14
C38A G80A G94A A97G C99G C131U G133C | ≤ -4.2
A37C G84U U127G G128A U134G | ≤ -4.2
A37U G65A A66U U77G G84A | ≤ -4.2
C38U A73G G86A A91U A97G A115C | ≤ -4.2
C38G U53A C85U U135A | -1.98

Variant | polymerase ribozyme fitness (log ratio)
C38U A60U | -1.14
A37U G81A U101C U111A U148G | ≤ -4.2
A37U C96U | -1.52
C38A C93U | -1.67
C38A A41C U61A G94A C131A G141A U144G U151A | ≤ -4.2
C38U G58C G80A C95A C114G | -3.62
C38U C85U C131G | -3.56
C38G C54G C79U G117A | ≤ -4.2
C38U C63U | 0.178
C38A G80U C125U | -2.34
A37U A64G A73G G133U | -4.19
C38G G59C C63U G83U U90G G126U | ≤ -4.2
C38A A64C G88C | ≤ -4.2
A37U C57U U101G | -0.608
C38U C85U U127A | -3.87
C38A G58C A98G A120C A121U | -0.687
C38G C87U C125U G141A | -3.12
C38U A47G C51G C93U | -3.21
C38U A66G | ≤ -4.2
A37U A98U | -0.971
A37U A47G U53A G92C A106U A137G G141U | ≤ -4.2
A37U G84A C118U A122U | -1.57
C38A C75G C96G | ≤ -4.2
C38A G70C G126C | -3.53

Variant | polymerase ribozyme fitness (log ratio)
A37C U45G A47C G59A C79G G81C U82C C95U | -4.18
C38U C87U C103U | -0.308
C38U G68U G94A | ≤ -4.2
C38U G80U U134G A142C G152U | -3.64
C38A C95G | -1.41
C38A C95U | -0.419
C38A U82G A91G A106C A138G | ≤ -4.2
A37U A40G C76G C93A C103G | ≤ -4.2
C38A C93A C131G A150U | ≤ -4.2
C38G G143C C149U | ≤ -4.2
C38G G92A | -4.14
C38G G50A G58C A60G U145G | ≤ -4.2
C38U C54U G58C C85U C105G U144C | -2.92
A37G U55A A73G U111G | ≤ -4.2
A37U C95U A122G | -1.77
C38U C54A U82C U134G | -3.4
C38A C95G G124C | -1.34
C38U G62C | -2.41
C38G C96G | -0.167
C38U A89C C93U G124C | -2.94
C38A U55A C76A | -1.15
A37C U44A C87A G94A U134G G141U | ≤ -4.2
A37G A40G A41G C76U C87U C93G C125G | ≤ -4.2
